Experimental findings from PMC4234289, “The LexA regulated genes of the Clostridium difficile” (BMC Microbiology, 2014) are described below.

The target of the assay is T1, C. difficile RecA, activated (RecA*) (Clostridium difficile 630, UniProt Q18BJ4 1-348).
T1 construct: Protein RecA (recombinase A) of Clostridium difficile strain 630; also called RecA* (CD); source: E. coli BL21 (DE3), purified (Ni-NTA, PD10 desalting)
T1 sequence (looked up): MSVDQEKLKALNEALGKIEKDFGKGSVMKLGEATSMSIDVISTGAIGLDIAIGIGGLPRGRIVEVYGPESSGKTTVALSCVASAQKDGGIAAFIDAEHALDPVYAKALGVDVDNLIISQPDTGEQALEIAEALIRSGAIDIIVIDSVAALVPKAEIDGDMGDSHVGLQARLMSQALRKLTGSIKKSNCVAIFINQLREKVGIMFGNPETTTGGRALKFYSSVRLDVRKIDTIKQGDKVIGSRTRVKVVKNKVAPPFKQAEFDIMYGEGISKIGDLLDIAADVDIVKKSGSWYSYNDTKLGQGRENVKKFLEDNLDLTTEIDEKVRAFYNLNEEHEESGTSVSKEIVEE
The experiment in a line: SPR; Biacore X, 25°C; RecA* immobilised on the chip (~2000 response units); LexA (2.6 μM) incubated with non-specific 22-bp DNA (recA operator with six nucleotides changed, 1.4-8.1 μM) passed over at 10 μl/min for 60 s; 20 mM NaH2PO4 pH 7.4, 150 mM NaCl, 2 mM MgCl2, 1 mM DTT, 1 mM ATP, 0.005% P20. The settings on record: both partners purified. Background: In SPR one partner is held on a chip, and binding of the other changes the refractive index at the surface.

B1: C. difficile LexA repressor (natural protein, Clostridium difficile 630, UniProt Q187P1 1-211, looked up)
chain: MYLDLTEKQVLILEFIKSQIILKGYPPAVREICTAVGLRSTSTVHSHLNKLEKLGYIRKDPTKPRAIEVLERSKVNDVSGANQEIIELPLVGQITAGEPILAQQNIEEYIPFPASLVKGSNNFVLRVKGESMINAGILDEDYVVVDKKNTALNSQIVVALINGESATVKRFFKEGNLIRLQPENDFMEPIMLNDSEVEIVGIVTGVFRVIK
notes: LexA repressor of Clostridium difficile strain 630; In the SPR with RecA* LexA was pre-incubated with 22-bp DNA; also called LexA (CD); DinR; source: E. coli BL21 (DE3), purified (Ni-NTA, PD10 desalting)
As to B1, the binding result is recorded as “binds”.
